{"source": "paper PMC3357956", "about": "(Nature structural & molecular biology, 2011)", "molecular_target": "the molecule itself", "test": "thioflavin T fluorescence"}
{"protein": "QGGFGNSRGGGAGLGNNQGSNMGGGMNFGAFSINPAMMAAAQAALQ (peptide, UniProt Q13148 286-331, looked up)", "note": "[wild-type TDP46mer (synthetic TDP-43 peptide Gln286-Gln331)]", "values": [{"measurement": "binding result", "value": "binds"}]}
